According to paper PMC10153262 (bioRxiv, 2023):

Tests used:
Assay in all cases: pull-down
[1] = target: GINIP WT, C-terminally His-tagged (pET21a(+)-GINIP-His) (human, UniProt Q9UPV7 1-400)
GINIP ∆N16 = GINIP ∆N16 (human, UniProt Q9UPV7 17-400)
[2] = target: Myristoylated GINIP (myr-GINIP), C-terminally His-tagged (human, UniProt Q9UPV7 1-400, myristoylated (co-expression with N-myristoyl transferase))

Measured: binding result

Chain of GINIP ∆N16 (Q9UPV7 17-400): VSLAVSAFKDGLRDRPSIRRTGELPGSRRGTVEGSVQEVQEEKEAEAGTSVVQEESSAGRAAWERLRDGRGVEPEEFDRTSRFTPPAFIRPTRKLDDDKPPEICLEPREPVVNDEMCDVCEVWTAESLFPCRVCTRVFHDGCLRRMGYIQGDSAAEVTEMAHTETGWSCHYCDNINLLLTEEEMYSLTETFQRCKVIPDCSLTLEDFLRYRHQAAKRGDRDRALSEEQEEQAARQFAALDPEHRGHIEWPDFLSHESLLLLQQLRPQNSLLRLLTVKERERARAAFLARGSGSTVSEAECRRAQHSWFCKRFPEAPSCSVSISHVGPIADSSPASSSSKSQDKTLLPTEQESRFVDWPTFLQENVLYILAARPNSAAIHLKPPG
Chain of GINIP WT, C-terminally His-tagged (pET21a(+)-GINIP-His) (Q9UPV7 whole entry): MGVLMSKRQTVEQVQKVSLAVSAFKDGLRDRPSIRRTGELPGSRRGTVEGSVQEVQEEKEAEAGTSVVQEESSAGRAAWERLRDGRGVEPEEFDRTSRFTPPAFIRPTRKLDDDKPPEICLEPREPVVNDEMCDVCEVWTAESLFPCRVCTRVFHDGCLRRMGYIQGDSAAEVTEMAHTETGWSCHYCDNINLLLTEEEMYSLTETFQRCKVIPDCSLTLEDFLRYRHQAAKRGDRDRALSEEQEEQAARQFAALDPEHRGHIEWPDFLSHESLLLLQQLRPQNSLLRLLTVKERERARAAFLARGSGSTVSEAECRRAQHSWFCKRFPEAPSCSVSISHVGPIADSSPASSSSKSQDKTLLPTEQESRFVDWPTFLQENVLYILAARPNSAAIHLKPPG
Chain of Myristoylated GINIP (myr-GINIP), C-terminally His-tagged (Q9UPV7 whole entry): as above

B1: GST-Gαi3 (natural protein)
chain: MGCTLSAEDKAAVERSKMIDRNLREDGEKAAKEVKLLLLGAGESGKSTIVKQMKIIHEDGYSEDECKQYKVVVYSNTIQSIIAIIRAMGRLKIDFGEAARADDARQLFVLAGSAEEGVMTSELAGVIKRLWRDGGVQACFSRSREYQLNDSASYYLNDLDRISQTNYIPTQQDVLRTRVKTTGIVETHFTFKELYFKMFDVGGQRSERKKWIHCFEGVTAIIFCVALSDYDLVLAEDEEMNRMHESMKLFDSICNNKWFTDTSIILFLNKKDLFEEKIKRSPLTICYPEYTGSNTYEEAAAYIQCQFEDLNRRKDTKEVYTHFTCATDTKNVQFVFDAVTDVIIKNNLKECGLY
binds: all assays above
